Experimental data: IntAct's records for PubMed 22139357

B1: Protein phosphatase 2C homolog 4 (Schizosaccharomyces pombe (strain ATCC 38366 / 972)), O14156 (parent)
chain: MSIRFLKRLRAPLYIQNAYCSKNYFYRSFIQYYSPSNGPYLKISMNKAPQSLGLCTARGDSPTNQDRMAYGYLNNLKDTTNRDSPFFYGLFDGHGGTECSEFLSTNLGKIIENQDLNDTEKILKEVHSVGGYMAGLKPPFSLRTVLQSRDEDLLWRARLYYSFLQADMDYLTNYARPSPDSAVPGAVGTVAIITSKNNLSYWESDSYIIHLAHVGDTRALLCDSRTGRAHRLTFQHHPADVEEARRLRRYNMGFSRDSFGQKRFAWVANTRSFGDGYKLKKLGVVAEPQLTSIHSLRDDWSFLTLLSDGITDVVSDDEVVDIIKLSESPQDAANNIIRYAQNVGAVDDITCLVVRLPGWKKRTINDFTKNLRLEKSAYHPRRS
partner: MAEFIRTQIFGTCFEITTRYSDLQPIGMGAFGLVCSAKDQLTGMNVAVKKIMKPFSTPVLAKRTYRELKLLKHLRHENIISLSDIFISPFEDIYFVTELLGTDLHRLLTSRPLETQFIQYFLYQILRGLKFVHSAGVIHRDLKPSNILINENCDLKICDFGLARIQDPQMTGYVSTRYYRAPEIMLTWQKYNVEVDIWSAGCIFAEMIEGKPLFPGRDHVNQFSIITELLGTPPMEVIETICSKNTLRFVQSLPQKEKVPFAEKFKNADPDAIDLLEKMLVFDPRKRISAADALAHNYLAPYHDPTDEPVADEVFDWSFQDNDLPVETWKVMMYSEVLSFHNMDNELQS

Legend:
Details in all cases: with hog1_schpo sty1, Q09892
hog1_schpo sty1, Q09892 [1] = variants of: B1
hog1_schpo sty1, Q09892 [2] = variants of: B1; remark: listed apart in the source
hog1_schpo sty1, Q09892 [3] = variants of: B1; remark: listed apart in the source

| Variant | effect of a mutation on the interaction (hog1_schpo sty1, Q09892 [1]) | effect of a mutation on the interaction (hog1_schpo sty1, Q09892 [2]) | effect of a mutation on the interaction (hog1_schpo sty1, Q09892 [3]) |
| --- | --- | --- | --- |
| MSIRFLKALRAPLYIQNAYCSKNYFYRSFIQYYSPSNGPYLKISMNKAPQSLGLCTARGDSPTNQDRMAYGYLNNLKDTTNRDSPFFYGLFDGHGGTECSEFLSTNLGKIIENQDLNDTEKILKEVHSVGGYMAGLKPPFSLRTVLQSRDEDLLWRARLYYSFLQADMDYLTNYARPSPDSAVPGAVGTVAIITSKNNLSYWESDSYIIHLAHVGDTRALLCDSRTGRAHRLTFQHHPADVEEARRLRRYNMGFSRDSFGQKRFAWVANTRSFGDGYKLKKLGVVAEPQLTSIHSLRDDWSFLTLLSDGITDVVSDDEVVDIIKLSESPQDAANNIIRYAQNVGAVDDITCLVVRLPGWKKRTINDFTKNLRLEKSAYHPRRS [R8A] | disrupting interaction | decreasing interaction | – |
| MSIRFLKRLAAPLYIQNAYCSKNYFYRSFIQYYSPSNGPYLKISMNKAPQSLGLCTARGDSPTNQDRMAYGYLNNLKDTTNRDSPFFYGLFDGHGGTECSEFLSTNLGKIIENQDLNDTEKILKEVHSVGGYMAGLKPPFSLRTVLQSRDEDLLWRARLYYSFLQADMDYLTNYARPSPDSAVPGAVGTVAIITSKNNLSYWESDSYIIHLAHVGDTRALLCDSRTGRAHRLTFQHHPADVEEARRLRRYNMGFSRDSFGQKRFAWVANTRSFGDGYKLKKLGVVAEPQLTSIHSLRDDWSFLTLLSDGITDVVSDDEVVDIIKLSESPQDAANNIIRYAQNVGAVDDITCLVVRLPGWKKRTINDFTKNLRLEKSAYHPRRS [R10A] | disrupting interaction | decreasing interaction | – |
| MSIRFLKRLRAPLYIQNAYCSKNYFYASFIQYYSPSNGPYLKISMNKAPQSLGLCTARGDSPTNQDRMAYGYLNNLKDTTNRDSPFFYGLFDGHGGTECSEFLSTNLGKIIENQDLNDTEKILKEVHSVGGYMAGLKPPFSLRTVLQSRDEDLLWRARLYYSFLQADMDYLTNYARPSPDSAVPGAVGTVAIITSKNNLSYWESDSYIIHLAHVGDTRALLCDSRTGRAHRLTFQHHPADVEEARRLRRYNMGFSRDSFGQKRFAWVANTRSFGDGYKLKKLGVVAEPQLTSIHSLRDDWSFLTLLSDGITDVVSDDEVVDIIKLSESPQDAANNIIRYAQNVGAVDDITCLVVRLPGWKKRTINDFTKNLRLEKSAYHPRRS [R27A] | disrupting interaction | – | decreasing interaction |
